These results are taken from the DeepSol protein solubility set.

The data set is described as follows: soluble on expression in E. coli; label from the status in PepcDB or PDB records.
“SLMHHALHIKNGIVIDPKNGVKAEKMDIFVKNGKIVEESEVKGEDVKVIDANNKLVVAGGVDMHAHIAGSKINTGRTMRPEEMRVVRNIAGKFRAAVGRVLLTSPAIGYEYAKMGYTISIEAAQPPIGSPHTHEELDAIPMIDKAALPVFGNWHFVLKYVAEKDMEKLKAFIAWAIERTKGFGVKVVNPGGVGAWMYGGNVTSLDDQVPGFNVTPREIITSLVKATEELQLNHSVHLHCNRLGVPGNYETTVESIKLVDGIRNDARQVLHVTHVQFNAYAGDSWRTVASGAEAIAKTVNSMDNVTIDMGQPIFGHATAMTGDAPFQFTLHKLTGSRWSNKDSEIEGGAGIVPIAYLPKNPVHALQWAIGLELGLLIDSDKVVLTTDYPNGGPFTEYPYIMAMLMSKKMREGELERVSPFVQKASNLPAIDTEKTLEEVIHMTRSLPARVLGLPQKGHLGVGADADIAIYDLNPLDVDTSNDFEKVYKAFKTAVYTIKDGQILVKDGELVDEYWGRTYWVDATGKADMEAIKDDLNEMFSKYYTVELQNYGVEERWLRKPERIVI”: the “soluble on expression in E. coli” value is reported as “not soluble”.

As for “MVGGVEELSIEQLASSISTYKEQLEQNFVCGLEFRIGEEKLNVRQLLSEDPRNSEYADMEKELKEVIALTEEVLATAKQNEISLSDAGVSAEATPGSPDLEGAWEKTGLRNDPIHEGKFPVGTKVQAVFSDDGEWYDATIEAHTANGYFVAYDEWGNKEEVDPDNVRPIEQNAIVEAERLAQATKNALKRKIEKAASSDYQTKTLPAKLKIDPNDPEDVKIAKRKKIHAFKSKARFEQLEVVQNKKQNDWQQFQTTKAKTKKVGFFTGRKKESIFKSPEDPFGKVGVTGSGKGLTDFQKREKHLHLKSGNAEGTDE”, the “soluble on expression in E. coli” value is reported as “soluble”.

As to “MDQGMFYLSAAYIVKTMISGGNLLKEYIEERAVAIANYIIDYNATVRQTARKFGISKSTVHKDVTDRLENINPSLAAQARVVLDINKAERHIRGGMATKEKYQHQLQACSRK”, the “soluble on expression in E. coli” value is reported as “not soluble”.

For “MRPIPEGYEAVFETVVTPEMTVRFEELGPVHPVYATYWMVKHMELAGRKIILPFLEEGEEGIGSYVEARHLASALPGMRVRVVARHEKTEGNRVYARVEAYNELGDLIGVGRTEQVILPKAKVEALFRRLKERWEAERSPS”, the “soluble on expression in E. coli” value is reported as “soluble”.

For “MLTEQQFRDEIRGFVDKMNENNFHWQLKEIGKYARETHLKTLSDGRVITSETHILYNSTYQVPTIWFNFFENNGSPLPFRTVIRDVLNISETEESEASIRSRISHYEHPFMGVLYYNIHPCNTSNIMKELNTDRSYLMSWFSVYGQQIGLKLPDRVL”, the “soluble on expression in E. coli” value is listed as “not soluble”.

For the sequence “GMPTFNPELHAQTLNSERAYFVQPDADPAFTPHIGALVEMLTYARLTTLQAVEGLPEDQLWATAPGFANSIGTLLAHIAAVERVYHVLSFQGRDVTPEDDGAAYWGLTMGKEGTAPARLPTLDELRAELADARAETLRVFAAKDDAWLAEPLGPGWANQHWAWFHVMEDEVNHRGQLRLLRQVLAPEEGG”, the “soluble on expression in E. coli” value is given as “soluble”.

“MSLLTLLRPATVQDCKDIFKVHLHSVQYTCILSYNEHALKVWEGLLNTESYLPTISDPDKALWVAEYKGNIQGFFQIDCQEAQLDALYVHPLFHNLGLGTALLHQAETIAHKSGLSFLKLYASLNSVPFYLLNRYESLGSAVLQLDPSIKIKCELMRKHL”: the “soluble on expression in E. coli” value is “not soluble”.

As for “MKPRDINKLIASKIFGYEIKDDNIIKDGRYRLGIPLYSQNIESAWQVVEKLEYDVKVTKTDLKPKYQVHVFVPGGVKMVFAETAPMAICKGALASVDIELQD”, the “soluble on expression in E. coli” value is “soluble”.

For the sequence “MENRPVNIVLPKIENPILIEGYPGIGLVGHIAANFLAKELKMEVIGYVESSFIPPMSLILEGKPNPPLRFYGKDNIIIAVADIYLPPTLINEIAKEIANYLEQNKAEKVISLGGMGIGIFKDKFEVWGVGGTEEENKELQDLGVKILEYGSISGMSGKLLWEASRRGLKSYVILGETFGDRPDPRAAANVVEVLDRMLTLNVSVEPLLKEAEMIEEQLRKMHEQMEKARRSVEKQYETMYL”, the “soluble on expression in E. coli” value is reported as “soluble”.

Turning to “MSVIRLHQYQVVGRALPTEKDEQPKIYRMKLWATNEVLAKSKFWYYLRRQKKVKKSNGQMLAINEIFEKNPTTIKNFGIWLRYQSRTGYHNMYKEYRDTTLNGAVEQMYTEMASRHRVRFPCIQIIKTATVPASLCKRESTKQFHNSKIKFPLVFRKVRPPTRKLKTTFKANKPNLFM”, the “soluble on expression in E. coli” value is given as “soluble”.

Consider “MRPMTIDIDELAFALDTPGIDHYLDLYSGKVLLISAEAPDPELDALLENEPERLLLIDPLSTTQSLGLMQDFLREVEEPHAYATLANALQSRKPFKAFKHSLMEYPELLQDWYRYQNERLREWALDWLEDNDIQPAARQSPTSLLPPPGKPFA”, for which the “soluble on expression in E. coli” value was “not soluble”.

As to “MGSDKIHHHHHHMPYSLHLPGYSIGDNAYEKIDAIVSTYGSSVAVIGGKTALEKSRPRLEAALAHSGIEVVDWIVYGHNCTYERVDALCGMPTVQQADMIFGVGGGRAVDTVKVVANRLGKPLFAFPTLGSNCAAATNLSVVYKDDDSLAGYDFQRGPCHHVFIDTTVIAQSPAELLWAGIADGMSKECEVKLQSRGRNLSHAPLMGRNVCSAVTPALMDFGLQALEDCRAGRSSQAIEEVALAIIMTCGYVSNMAVDPGQAYYYNSSLAHAFYNSSTAFPECVGKHLHGEIVSYGVLALLQYDGDMETKRRYVEFYKQMGFPLTLADLDLQESDIPELVSHVPATTEWKTGDFDLERFAQAIIDAQVFA”, the “soluble on expression in E. coli” value was “not soluble”.

In the case of “MGSSHHHHHHGKTIFVIVPTNEEQVAFLEALAKQDELNFDWQNPPTEPGQPVVILIPSDMVEWFLEMLKAKGIPFTVYVEEGGSENLYFQGGGGGGVRYVQRPWFSPLGFMASSPTAYAPMMTCIALALIFPFRYQISEYFERQRDGVHVELRRKAVKYYAEMERMHRRQALVNLESIQDDNAPHRLSAVLSVESIQAGHLDQEYNYWYAHERDAIRAEKLMMEIRELKAKMPADSA”, the “soluble on expression in E. coli” value is recorded as “not soluble”.

For the sequence “MSLKNEIQFEVFGDYALFTDPLTKIGGEKLSYSVPTYQALKGIVESIYWKPTIIFTIDKLRVMKPIQMESKGVRPIDYGGGNTLAHYTYLKDVHYQVKAHFDFNFNRPDLAFDRNEGKHYSILQRSLKAGGRRDIFLGTRECQGYVAPCEFGSGSGYYDGQGEYRLGTMVHGFNYPDETGQNQLDVRLWPAVMNDGYIKFPKPEDCTMIRPIKEMEPKEFKRDDIQSVEQLSYEVGGEEGHHHHHH”, the “soluble on expression in E. coli” value is given as “soluble”.

With “ADPAECSIKVMCRFRPLNEAEILRGDKFIPKFKGEETVVIGQGKPYVFDRVLPPNTTQEQVYNACAKQIVKDVLEGYNGTIFAYGQTSSGKTHTMEGKLHDPQLMGIIPRIAHDIFDHIYSMDENLEFHIKVSYFEIYLDKIRDLLDVSKTNLAVHEDKNRVPYVKGCTERFVSSPEEVMDVIDEGKANRHVAVTNMNEHSSRSHSIFLINIKQENVETEKKLSGKLYLVDLAGSEKV”, the “soluble on expression in E. coli” value was “soluble”.

Regarding “MQAAVTVTPARLPELLLGLATVRPVFLWGAPGIGKSSLVRNFADSLGLECVSLLGTQLAPEDLIGVPQIRDGRSVFCPPESIARDEPYCLFLDELNAATPDVQKAFYSLILDRRIGNYELPKGSLVIGAGNRATDNALARPIASALVNRLTHVHLDASAKDWLVWAGENGIHPWITDHLTDRPDHLWSKPPKTEEPFSTPRSWHMLSDALHSFGQDLDEETLKVLAHGTLTPAHATAFCGYVKIVRSRFGIEAILKGEARWPSRIEDRDLLYYLAESFRGRLVKELPASKEHMSANGRQTAYRAKSLLVQLAEISVEVAQSVIASDADGNPLLPAWFLVEAARDMPRLVEARRLEHHHHHH”, the “soluble on expression in E. coli” value is on record as “not soluble”.

On to “MMSPRIGLTLQKIVETAAEIADANGVQEVTLASLAQTLGVRSPSLYNHVKGLQDVRKNLGIYGIKKLHNRLEEAAEDKRMDEAIHALGEAYVAFVRKHPGLYEATFLRDEEVRKAGDGIVKLCLQVLQQYGLEGENALHATRGFRSICHGFASIEQQGGFGLPLDLDISLHVLLETFIKGLRE”, for which the “soluble on expression in E. coli” value is on record as “soluble”.

In the case of “MTESLNRDLPVLLATLNKLSSDADRILLENREDIRKIAYNLSIVMEKVKDDLPVLVENLKELSVNLNTVVKNNKVNINKTLVSLRKTTENLSRASYKLDKILADLESGKGTLGKLLKDEELYENVNQGVKALGKAGKVVEKTQLYIGLRGELYREGDSKGILSVRLVPDRDKYYLLEVVGDSRGRVYREEYLDGREVVKKEFKPEFTLQYARNFSLFGRTLTLRGGLKENTGGVGADYYIYRDKYLFADLWDFGRKDRPQDKDLKPNLQIGIHWYINRNLYVRFGGDDLLNSKLRGFFGGVGLEFVDEDLKYLLGGIGVPIR”, the “soluble on expression in E. coli” value is “not soluble”.

On to “GAADKRIDGNGNPETREIKISDYDEITFVGSADFEYEQSDKAPYLSVTIDENLFDYLVTEVEGGTLKIYPKSIKKGFNNNSYDLRPTVYKIKSNSKELKELNTVGSGSFIISKPTKVNRMEINMAGSGNVELRGPVKGYKLECNMAGSGNIIAKDIQLDNLSCSLASSGEIEVIGTVDRASFNVAGSGEIKAFDCQARKAECNIASSGEISVYATQILDANIVGSGEIHYKGDPEISKSIMGSGSINKVK”, for which the “soluble on expression in E. coli” value is “soluble”.

Take “MSLRQKQKEGGTYSPQDAEIIDTKLKLDQLITVADLELKDERLTRMTVMAATEKFQIMKKELPKFLQDLSSTDADLPWNRAKNRFPNIKPYNNNRVKLIADASVPGSDYINASYISGYLCPNEFIATQGPLPGTVGDFWRMVWETRAKTLVMLTQCFEKGRIRCHQYWPEDNKPVTVFGDIVITKLMEDVQIDWTIRDLKIERHGDCMTVRQCNFTAWPEHGVPENSAPLIHFVKLVRASRAHDTTPMIVHCSAGVGRTGVFIALDHLTQHINDHDFVDIYGLVAELRSERMCMVQNLAQYIFLHQCILDLLSNKGSNQPICFVNYSEGHHHHHH”: the “soluble on expression in E. coli” value is recorded as “soluble”.

With “MAHHHHHHMPMILNEGWNIIQINLQEYTEKAFRTKYMETMDIQINASIRIRCIYFCDKLYNNDELKDEYKIFSKKKEKIKYTPPQCLNKPLKKMTIKSIITEGVSKGGENLPTEVEANKATTENEILEDSSTSGNSKKTDVEPTSQKNLQSIDMTEGIELYEESTDDPFFDEKNDGEGTPLAQVIGGEELLVGGEESTEVANNMTMDLTENTVTGTMNGPMKDQQDAEEAEHLAHIKTLEMDDTNVLYEDVNYETYNNDDH”, the “soluble on expression in E. coli” value was “soluble”.

Turning to “GVDWQDANSLQYVVQSAETLVPDVKPVAQAESVNRVNTGGEGLGGELRDQEYAIILETLVECNGRRKEMAEKLGISPRTLRYKLAKMRDAGIDIPS”, the “soluble on expression in E. coli” value is “not soluble”.

“MYVECLSSTTPPIDVFDYLSFFVFNKKDNKYLSIQDVEVKRFSSSKTVWGLPKAMSLETFTDPAKGFIVEGEPCEFGAHVKIASSPVPVDENLPFHKFSWSIRDFSVLKQNDCISKTFAMGGKNWTLTVYPKGDSEADNEFCKYLHLADGEVLSPGEMISVRAQLRALDPRGSKHKTVWLQQWIMAATKARGIPQSLSLADLQEAYLDEDTLNVEIECEVVNSRKMF”: the “soluble on expression in E. coli” value was “soluble”.

With “MVNLQEYQSKKLMSDNGVKVQRFFVADTANEALEAAKRLNAKEIVLKAQILAGGRGKGVFSSGLKGGVHLTKDPEVVGQLAKQMIGYNLATKQTPKEGVKVNKVMVAEALDISRETYLAILMDRSCNGPVLVGSPQGGVDIEEVAASNPELIFKEQIDIIEGIKDSQAQRMAENLGFLGPLQNQAADQIKKLYNLFLKIDATQVEVNPFGETPEGQVVCFDAKINFDDNAEFRQKDIFAMDDKSENEPIENEAAKYDLKYIGLDGNIACFVNGAGLAMATCDIIFLNGGKPANFLDLGGGVKESQVYQAFKLLTADPKVEAILVNIFGGIVNCAIIANGITKACRELELKVPLVVRLEGTNVHEAQNILTNSGLPITSAVDLEDAAKKAVASVTKK”, the “soluble on expression in E. coli” value is given as “soluble”.
